Target: actin from rabbit skeletal muscle (G-actin polymerized to F-actin) (rabbit) (UniProt P68135)

MBP-DRR1 dC (recombinant murine DRR1 lacking the C-terminal domain, MBP fusion) (domain or fragment), sequence (Q78TU8 whole entry, the tested form may be a part): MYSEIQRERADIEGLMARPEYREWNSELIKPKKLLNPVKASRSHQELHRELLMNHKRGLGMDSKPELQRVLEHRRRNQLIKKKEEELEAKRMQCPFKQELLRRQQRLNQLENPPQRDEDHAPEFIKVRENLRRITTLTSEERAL

## MBP-DRR1 dC (recombinant murine DRR1 lacking the C-terminal domain, MBP fusion) (domain or fragment)
  barbed end filament elongation rate in the presence of profilin (1.5 µM), TIRF microscopy, R = 0.5: 36 % of control
